The target in test [1] is T1, monkey CEA expressed on CHO cell surface (cynomolgus monkey).
T1 construct: also called cynoCEA-CHO; monkey CEA proteins on the cell surface
T1 chain: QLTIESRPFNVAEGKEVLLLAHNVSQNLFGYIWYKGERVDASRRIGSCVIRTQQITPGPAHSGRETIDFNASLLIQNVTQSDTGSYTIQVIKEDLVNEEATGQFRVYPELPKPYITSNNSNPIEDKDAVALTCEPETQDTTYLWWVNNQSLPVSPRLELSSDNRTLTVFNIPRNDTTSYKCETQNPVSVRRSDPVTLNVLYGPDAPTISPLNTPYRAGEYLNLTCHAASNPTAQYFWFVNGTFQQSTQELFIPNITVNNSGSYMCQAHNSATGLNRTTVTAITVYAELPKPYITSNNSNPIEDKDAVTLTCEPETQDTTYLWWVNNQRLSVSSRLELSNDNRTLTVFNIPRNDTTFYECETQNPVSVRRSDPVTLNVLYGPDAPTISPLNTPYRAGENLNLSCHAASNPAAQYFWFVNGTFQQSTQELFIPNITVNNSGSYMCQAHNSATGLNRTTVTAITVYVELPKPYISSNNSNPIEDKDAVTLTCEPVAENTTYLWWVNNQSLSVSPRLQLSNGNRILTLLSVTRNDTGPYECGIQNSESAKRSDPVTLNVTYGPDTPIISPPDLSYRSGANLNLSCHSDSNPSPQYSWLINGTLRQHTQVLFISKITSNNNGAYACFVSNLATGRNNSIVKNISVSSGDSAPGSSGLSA
The experiment in a line: FACS, cynoCEA-CHO cells.

Test [2] concerns the target T2, human CEA protein on the cell surface (human, UniProt P06731 35-685).
T2 construct: whole, on cells; also called CEACAM-5; CD66e
T2 sequence (looked up): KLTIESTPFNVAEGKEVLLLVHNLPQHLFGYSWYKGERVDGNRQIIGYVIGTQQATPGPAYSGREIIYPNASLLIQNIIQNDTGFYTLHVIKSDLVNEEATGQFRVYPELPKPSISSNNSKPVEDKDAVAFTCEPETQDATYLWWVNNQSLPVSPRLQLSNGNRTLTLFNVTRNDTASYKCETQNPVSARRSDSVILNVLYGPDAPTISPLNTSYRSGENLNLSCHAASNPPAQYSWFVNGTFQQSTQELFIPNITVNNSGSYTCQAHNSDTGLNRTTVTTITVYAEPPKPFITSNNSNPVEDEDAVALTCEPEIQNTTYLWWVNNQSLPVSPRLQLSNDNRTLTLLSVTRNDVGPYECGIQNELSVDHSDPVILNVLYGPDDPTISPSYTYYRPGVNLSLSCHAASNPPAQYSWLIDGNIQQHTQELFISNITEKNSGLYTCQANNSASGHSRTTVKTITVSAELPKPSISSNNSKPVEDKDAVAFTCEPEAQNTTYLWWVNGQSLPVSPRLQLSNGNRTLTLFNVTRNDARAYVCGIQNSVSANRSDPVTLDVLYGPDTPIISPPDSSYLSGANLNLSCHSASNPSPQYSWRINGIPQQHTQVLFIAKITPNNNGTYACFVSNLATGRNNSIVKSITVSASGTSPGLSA
As to the kind of experiment: FACS, MKN45 cells.

Test [3] concerns the target T2, human CEA protein on the cell surface. The experiment in a line: FACS, MKN45 cells, -/+ 5 ug/mL sCEA as competitor. As for the experimental part: The gradient-diluted antibody and the pre-incubated mixed solution of the antibody and sCEA was added into each well. The plate was incubated at 4° C. for 60 min and centrifuged, and the supernatant was removed. The cells were washed twice with pre-cooled PBS containing FBS at final concentration 10%. 50 μL of 1:200 diluted secondary antibody Alexa Fluor@488 goat anti-human IgG (H+L) (Lifetechologies, Cat #A11013) was added. […] The cells were washed twice with 250 μL of pre-cooled PBS with FBS at final concentration 10%. 100 μL of pre-cooled PBS was added to each well to resuspend the cells. The suspension was analyzed by a flow cytometer (FACS) (BD, FACSverse) for fluorescence signal values.

In test [4] the target is T3, human CEACAM1 expressed on CHO cell surface (human, UniProt P13688 35-526).
T3 construct: also called CEACAM1-CHO
T3 sequence: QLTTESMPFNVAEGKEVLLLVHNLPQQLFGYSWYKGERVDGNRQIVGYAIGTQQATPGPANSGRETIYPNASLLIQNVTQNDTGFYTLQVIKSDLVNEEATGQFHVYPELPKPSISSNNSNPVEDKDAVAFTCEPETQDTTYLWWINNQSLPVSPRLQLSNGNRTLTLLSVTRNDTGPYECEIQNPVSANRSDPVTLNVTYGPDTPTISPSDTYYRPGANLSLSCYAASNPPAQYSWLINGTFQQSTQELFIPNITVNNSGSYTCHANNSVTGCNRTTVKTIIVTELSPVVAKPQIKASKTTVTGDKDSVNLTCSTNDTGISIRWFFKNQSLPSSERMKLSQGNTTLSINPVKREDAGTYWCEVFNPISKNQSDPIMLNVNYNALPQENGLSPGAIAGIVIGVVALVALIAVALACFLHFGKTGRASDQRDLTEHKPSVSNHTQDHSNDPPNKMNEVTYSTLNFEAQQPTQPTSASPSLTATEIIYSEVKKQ
As to the kind of experiment: FACS, CEACAM1-CHO cells.

B1: mAb103 (antibody, V domains shown)
VH: QIQLVQSGPELKKPGETVKISCKASGYTFTTYGVIWVKQAPGKGLKWMGWINTYSGVPTYADDFKGRFAFSLETSASTAFLQINNLKNEDTATYFCARKKTLTTVTPWFAYWGQGTLVTVSA
VL: DLVVTQSSSASFSLGASAKLTCTLSSQHSTYTIEWYQQQPLKPPKYVMELKKDGSHSTGDGIPDRFSGSSSGADRYLTISNIQPEDEAIYICGVGNTIKEQFVYVFGGGTKVTVL
notes: Murine hybridoma antibody
B1: the 50% effective concentration (EC50) in test [1] is 0.71 nM; in test [2], 3.94 nM. In test [3], the “maximum ratio of fluorescence signals (absence of sCEA / presence of sCEA)” value is 1.02. Moreover, the binding result in test [4] is recorded as “no binding”.

The values are drawn from patent US20230055408A1 (JIANGSU HENGRUI MEDICINE, published 2023).
